Measured values reported in publication PMC7538161, “Breakage of the oligomeric CaMKII hub by the regulatory segment of the kinase” (eLife, 2020).
Values joined by “and” are separate entries in the source; they are usually repeats but may differ in a detail not shown here. Equal values may be shown once. Non-standard residues stand in square brackets, D forms with d. No end group written: not given here. pT = C[C@@H](OP(=O)(O)O)[C@H](N)C(=O)O

B1: human CaMKII-α hub domain (domain or fragment, UniProt Q9UQM7 345-475, looked up)
chain: VRKQEIIKVTEQLIEAISNGDFESYTKMCDPGMTAFEPEALGNLVEGLDFHRFYFENLWSRNSKPVHTTILNPHIHLMGDESACIAYIRITQYLDAGGIPRTAQSEETRVWHRRDGKWQIVHFHRSGAPSV
notes: Ca2+/calmodulin-dependent protein kinase II alpha (CaMKII-α), human, hub domain, residues 345-475 of Uniprot Q9UQM7; Forms dodecameric and tetradecameric assemblies; also called the hub; hub assembly; source: E. coli BL21, purified (Ni-NTA, PreScission cleavage, Ni-NTA flow-through, Superose 6 gel filtration); not shown: His6, N-terminal, cleaved; copies: 12 or 14
B2: Peptide A^phos (peptide)
peptide: LKKFNARRKLKGAIL[pT]TMLA
modifications: also: phosphothreonine at Thr 305
notes: also called phosphorylated Peptide A; source: bought: Elim Biopharm (lyophilized powder)
B3: Peptide G (peptide)
peptide: RSTVASCMHRQETVDCLKKFNA
notes: also called autonomy site peptide; source: bought: Elim Biopharm (lyophilized powder)
B4: Peptide A (peptide)
peptide: LKKFNARRKLKGAILTTMLA
notes: source: bought: Elim Biopharm (lyophilized powder)
B5: Peptide H, CaMKIINTide (peptide)
peptide: KRPPKLGQIGRSKRVVIEDDRIDDVLK
notes: as for B4
B6: Peptide B (peptide)
peptide: AILTTMLATRNFSGGKSGGNKK
notes: as for B4
B7: Peptide B^phos (peptide)
peptide: AIL[pT]TMLATRNFSGGKSGGNKK
modifications: also: phosphothreonine at Thr 305
notes: also called phosphorylated Peptide B; source: bought: Elim Biopharm (lyophilized powder)

Tests used:
[1] = molecular target: the molecule itself; experiment: native MS; hub alone, 120 µM subunit concentration in 400 mM ammonium acetate, 5 min at room temperature; nanoelectrospray, sample cone voltage 50 V, source 80°C
[2] = molecular target: B1; experiment: native MS; hub 120 µM (subunits) mixed with 1 to 100 µM phosphorylated peptide, ~400 mM ammonium acetate, injected at once without incubation; sample cone voltage 50 V; details: both partners purified
[3] = molecular target: B1; experiment: native MS; hub 120 µM (subunits) mixed with 1 µM to 1 mM unphosphorylated peptide, ~400 mM ammonium acetate, incubated 5 min at room temperature; nanoelectrospray, sample cone voltage 50 V, source 80°C; details: both partners purified

| Binder | binding result [3] | further results |
| --- | --- | --- |
| B1 | – | stoichiometry N [1]: 12 and 14 |
| B2 | – | binding result [2]: binds |
| B3 | binds | – |
| B4 | binds | – |
| B5 | binds | – |
| B6 | binds | – |
| B7 | – | binding result [2]: binds |
